Response data for eleven variants are collected here from PMC8367383, “A CTP-dependent gating mechanism enables ParB spreading on DNA” (eLife, 2021).

The chains are these.
B1: C. crescentus ParB on a cysteine-less ParB background [C. crescentus] / itself (parent)
chain: MESVVVGEPGMSEGRRGLGRGLSALLGEVDAAPACAPGEQLGGSREAPIEILQRNPDQPRRTFREEDLEDLSNSIREKGVLQPILVRPSPDTAGEYQIVAGERRWRAAQRAGLKTVPIMVRELDDLAVLEIGIIENVQRADLNVLEEALSYKVLMEKFERTQENIAQTIGKSRSHVANTMRLLALPDEVQSYLVSGELTAGHARAIAAAADPVALAKQIIEGGLSVRETEALARKAPNLSAGKSKGGRPPRVKDTDTQALESDLSSVLGLDVSIDHRGSTGTLTITYATLEQLDDLSNRLTRGI

Variants of B1 are the subject of the experiment. As to the kind of experiment: BMOE crosslinking assay. Particulars: with itself, 8 µM ParB variant, 0.5 µM 22 bp parS DNA, 5 min preincubation, read off a plot.
Setting [1] is: 1 µM CTP point (lowest), parent: 33.
[2] abbreviates: 1000 µM CTP point (highest), parent: 80.

As to chain 1 R104A, the response runs as follows: under setting [1], 24%; under setting [2], 23%.
On the same counts, the results for chain 1 E135A are 68% and 80%.
Turning to chain 1 G79S, the response reads like this: under setting [1], 27%; under setting [2], 62%.
On the same counts, the results for chain 1 R60A are 32% and 49%.
On the same counts, the results for chain 1 Q58A are 64% and 79%.
Taken in the same sequence, the figures for chain 1 Q82A were 31% and 76%.
In the case of chain 1 R103A, the response was 30% under setting [1] and 34% under setting [2].
Taken in the same sequence, the figures for chain 1 N136A were 52% and 64%.
On the same counts, the results for chain 1 S74A are 28% and 39%.
With chain 1 E102A, the response was found to be 31% under setting [1] and 80% under setting [2].
On the same counts, the results for chain 1 R139A are 28% and 36%.
